Data set [1] relates to B2M. Description: Targeted PCR and NGS (amplicon sequencing) of on-target and off-target sites in genome-edited LSCs. The data set is classed as cell-based, human. To be noted: for validated indels for off-target activity in LSCs: amplicon sequencing of potential off-target loci; for Number of sites positive for off-target activity in LSCs: of the potential off-target loci sequenced; for B2M purified rhAmpSeq indel: purified (B2M negative) LSC populations. As to the method: Potential CRISPR/Cas9-mediated cutting sites identified above were evaluated using targeted PCR and NGS in genome-edited expanded LSCs.
Selected sgRNAs (SEQ ID NO: 120, 162, 166, 167, 171, and 175) were further analyzed by amplicon sequencing in edited and non-edited cells. Primers flanking the potential off-target sites for each guide were used to detect indels by NGS analysis in edited LSCs and non-edited peripheral blood mononuclear cells. Sites that had either (1) a difference in mean indel percentage between edited and unedited cells greater than 0.5%; or (2) a p value less than 0.05 between edited and unedited indel were further analyzed. NGS sequence reads for such sites were assessed for characteristic indel patterns near the putative Cas9 cut site. Based on the results, we could assess the specificity of gRNAs and their suitability for therapeutic applications.

For data set [2], the system named is B2M. In words: sgRNA screening for B2M knockout in LSCs (nucleofection, FACS). The data set is classed as cell-based, human. To be noted: Cas9 protein SEQ ID NO: 106, LSCs at passage 3, FACS after around 3 days. How it is done: Cells were cultured under these conditions for 24-48 hours at 37° C. in 5% CO2.
LSCs were nuclofected with selected gRNAs (Table 6) followed by FACS analysis / MACS separation.
After scraping the cells, the reaction was stopped by using cell culture medium containing 10% Serum and transferred to a falcon tube. After counting cells using Vi-cell 300′000 cells were prepared per reaction by transferring 300′000 cells in single tubes and centrifuged at 1000 rpm for 5 min. The supernatant was aspirated using manually pipetting to avoid cell loss and the cells were resuspended in the Stem cell nucleofector solution II (Lonza, Cat #VPH-5022). Resuspend cells in nucleofector solution immediately before adding the Cas9 RNP:sgRNA mixture. To obtain the nucleofection mixture, 5 µg high concentrated (≥5 µg/µl) Cas9 protein of SEQ ID NO: 106 (volume = 0.78 µl) was mixed with 19.5 µg sgRNA of Table 6 (volume = 12.2 µl) and incubated for 20 min at room temperature. […] The Cas9 protein-guideRNA complex was added to the cell suspension and transferred to the electroporation cuvette immediately. Cells were transfected using the nucelofector device (Lonza, Amaxa Nucleofector II) and program A023. After nucleofection cells were transferred from cuvette to one well of a 24 well synthemax coated plate containing pre-warmed LSC medium including 3 µM LATS compound and 10 µM Rock inhibitor Y-27632 (Nature 1997, vol. 389, pp. 990-994). Incubate LSCs in a 5% CO2 incubator for around 3 days until cells are 90% confluent.
LSCs were treated with TryLE®Express Enzym (ThermoFisher, Cat #12605010) for 15 minutes in 5% CO2 at 37° C. After scraping the cells, the reaction was stopped by using cell culture medium containing 10% Serum and transferred to a falcon tube for a centrifugation step (1000 rpm, 5 minutes). After aspirating the medium cells were resuspended in 200 µl FACS buffer (PBS/10%FBS).
To analyze the expression of B2M and HLA-ABC, 5 µl APC mouse anti-human β2-microglobulin antibody (Biolegend, Cat#316312) and 20 µl PE mouse anti-human HLA-ABC antibody (BD Bioscience, Cat # 560168) were added to the cell suspension and incubated for 30 minutes on ice.
Cells were washed 3 times after antibody labelling with FACS buffer and resuspended in 200 µl in FACS buffer (depending on the cell number).
FACS data were analyzed using BD FACSDiva software and FlowJo software.

Data set [3] deals with genomic DNA purified from male human peripheral blood mononuclear cells. In words: Biochemical assay for potential off-target genomic sites cleaved by Cas9 and B2M guides. To be noted: number of potential off-target sites, guide concentration 64 nM. As to the method:
A biochemical method (See, e.g., Cameron et al., Nature Methods. 6, 600-606; 2017) was used to determine potential off-target genomic sites cleaved by Cas9 and selected B2M guides. Guides showing B2M indel activity were tested for potential off-target genomic cleavage sites with this assay. […] The number of potential off-target sites detected using a guide concentration of 64 nM in the biochemical assay are shown in Table 10. As a result of this analysis, several gRNAs were selected for analysis of potential off-target activity in limbal stem cells.

The test system of a further data set is human B2M. In words: CRISPR/Cas9-mediated deletion of B2M in HEK293 (lipofection, FACS). To be noted: lipofection of tracrRNA, gRNA and Cas9 mRNA; FACS after 72 h. The data set is classed as cell-based. How it is done: One day before transfection, 500′000 HEK293cells (ATCC, Manassas, VA) were plated in a 35 mm dish and grown in DMEM/10%FBS. The following day, cells were transfected with a mixture of tracrRNA-gRNA-Cas9 mRNA. A stock of 10 micromolar was prepared resuspending 20 nanomoles of gRNA and 20 nanomoles tracrRNA in 2000 microlitre 10 millimolar Tris buffer pH7.4 each.
The mixture was added drop wise to the culture dish in 2.5 ml DMEM/10%FBS medium. The transfection reagent alone represented the transfection negative control.
After 6 h incubation in 5% CO2 at 37° C. medium was replaced with fresh DMEM/10%FBS medium. After 72 h in a 5% CO2 incubator cells were prepared for FACS analysis. FACS analysis: HEK293 cells were treated with Accutase (ThermoFisher, Cat # A1110501) for 20 minutes in 5% CO2 at 37° C. The reaction was stopped by using cell culture medium containing 10% Serum and transferred to a falcon tube for a centrifugation step (1000 rpm, 5 minutes). After aspirating the medium cells were resuspended in 200 microlitre FACS buffer (PBS/10%FBS).
To analyze the expression of B2M and HLA-ABC, 5 microlitre APC mouse anti-human β2-microglobulin antibody (Biolegend, Cat #316312) and 20 microlitre PE mouse anti-human HLA-ABC antibody (BD Bioscience, Cat # 560168) were added to the cell suspension and incubated for 30 minutes on ice. Cells were washed 3 times after antibody labelling with FACS buffer and resuspended in 500 microlitre in FACS buffer.
Each sample was transferred to one well of a round bottom 96 well plate and analyzed on a BD LSRFortessa X-20 device. FACS data were analyzed using BD FACSDiva software.

From US20230348852A1, “METHODS AND COMPOSITIONS FOR OCULAR CELL THERAPY” (NOVARTIS AG, priority 2020, published 2023) come the findings set out here.

B1: 8-HEYJA000004: gRNA targeting human B2M; targeting domain SEQ ID NO: 115; sgRNA SEQ ID NO: 166 (nucleic acid)
guide: ACUCACGCUGGAUAGCCUCCGUUUUAGAGCUAGAAAUAGCAAGUUAAAAUAAGGCUAGUCCGUUAUCAACUUGAAAAAGUGGCACCGAGUCGGUGCUUUU
modifications: listed as RNA, chemistry not given here
Take B1: in the data set with B2M [1], the “validated indels for off-target activity in LSCs” value (from here on “validated indels”) was “zero”, the “Number of sites positive for off-target activity in LSCs” value (“Number of sites positive” for short) was 0 of 60 and the “B2M purified rhAmpSeq indel” value was 99.95±0.07%. In the data set with B2M [1] (listed as SEQ ID NO: 166), the “Number of sites positive” value is reported as “no predicted sites tested positive for off-target activity” and the “B2M purified rhAmpSeq indel” value is reported as ~ 99%. Besides, the “B2M knockout efficiency in LSCs after nucleofection” value (from here on “B2M knockout efficiency in LSCs”) in the data set with B2M [2] is listed as 22%. Also, the “off-target Site_ Count” value in data set [3] turned out to be 62. Further, the “B2M knockout efficiency in HEK293” value in the data set on human B2M amounted to 65%.

B2: 4-CR004366: gRNA targeting human B2M; targeting domain SEQ ID NO: 111; sgRNA SEQ ID NO: 162; from Dharmacon (nucleic acid)
guide: CAGUAAGUCAACUUCAAUGUGUUUUAGAGCUAGAAAUAGCAAGUUAAAAUAAGGCUAGUCCGUUAUCAACUUGAAAAAGUGGCACCGAGUCGGUGCUUUU
modifications: listed as RNA, chemistry not given here
notes: gRNA targeting human B2M; from Dharmacon
Consider B2, for which, in the data set with B2M [1], the “validated indels” value was “zero”, the “Number of sites positive” value is reported as 0 of 88 and the “B2M purified rhAmpSeq indel” value is on record as 99.85±0.21%. Besides, in the data set with B2M [1] (listed as SEQ ID NO: 162), the “Number of sites positive” value is on record as “no predicted sites tested positive for off-target activity” and the “B2M purified rhAmpSeq indel” value was ~ 99%. Besides, in the data set on B2M [2], the “B2M knockout efficiency in LSCs” value amounted to 22%. For the same molecule, the “off-target Site_ Count” value in data set [3] came out at 92. Moreover, in the data set on human B2M, the “B2M knockout efficiency in HEK293” value amounted to 48%.

B3: 9-HEYJA000005: gRNA targeting human B2M; targeting domain SEQ ID NO: 116; sgRNA SEQ ID NO: 167 (nucleic acid)
guide: UCACGUCAUCCAGCAGAGAAGUUUUAGAGCUAGAAAUAGCAAGUUAAAAUAAGGCUAGUCCGUUAUCAACUUGAAAAAGUGGCACCGAGUCGGUGCUUUU
modifications: listed as RNA, chemistry not given here
On to B3, for which, in the data set with B2M [1], the “validated indels” value was “zero”, the “Number of sites positive” value is 0 of 35 and the “B2M purified rhAmpSeq indel” value was determined as 99.80±0.26%. Besides, in the data set with B2M [1] (listed as SEQ ID NO: 167), the “Number of sites positive” value was “no predicted sites tested positive for off-target activity” and the “B2M purified rhAmpSeq indel” value is ~ 99%. The “B2M knockout efficiency in LSCs” value with B2M [2] amounted to 12%. Besides, the “off-target Site_ Count” value in data set [3] turned out to be 35. Besides, the “B2M knockout efficiency in HEK293” value with human B2M turned out to be 39%.
